Results reported in publication PMC10786891, “Massively parallel profiling of RNA-targeting CRISPR-Cas13d”.
Substitutions are numbered along the chain they refer to. Names and notes keep the numbering of the source.

T1: EsCas13d, nuclease-dead (Eubacterium siraeum, UniProt B0MS50, R295A;H300A;R849A;H854A)
T1 sequence: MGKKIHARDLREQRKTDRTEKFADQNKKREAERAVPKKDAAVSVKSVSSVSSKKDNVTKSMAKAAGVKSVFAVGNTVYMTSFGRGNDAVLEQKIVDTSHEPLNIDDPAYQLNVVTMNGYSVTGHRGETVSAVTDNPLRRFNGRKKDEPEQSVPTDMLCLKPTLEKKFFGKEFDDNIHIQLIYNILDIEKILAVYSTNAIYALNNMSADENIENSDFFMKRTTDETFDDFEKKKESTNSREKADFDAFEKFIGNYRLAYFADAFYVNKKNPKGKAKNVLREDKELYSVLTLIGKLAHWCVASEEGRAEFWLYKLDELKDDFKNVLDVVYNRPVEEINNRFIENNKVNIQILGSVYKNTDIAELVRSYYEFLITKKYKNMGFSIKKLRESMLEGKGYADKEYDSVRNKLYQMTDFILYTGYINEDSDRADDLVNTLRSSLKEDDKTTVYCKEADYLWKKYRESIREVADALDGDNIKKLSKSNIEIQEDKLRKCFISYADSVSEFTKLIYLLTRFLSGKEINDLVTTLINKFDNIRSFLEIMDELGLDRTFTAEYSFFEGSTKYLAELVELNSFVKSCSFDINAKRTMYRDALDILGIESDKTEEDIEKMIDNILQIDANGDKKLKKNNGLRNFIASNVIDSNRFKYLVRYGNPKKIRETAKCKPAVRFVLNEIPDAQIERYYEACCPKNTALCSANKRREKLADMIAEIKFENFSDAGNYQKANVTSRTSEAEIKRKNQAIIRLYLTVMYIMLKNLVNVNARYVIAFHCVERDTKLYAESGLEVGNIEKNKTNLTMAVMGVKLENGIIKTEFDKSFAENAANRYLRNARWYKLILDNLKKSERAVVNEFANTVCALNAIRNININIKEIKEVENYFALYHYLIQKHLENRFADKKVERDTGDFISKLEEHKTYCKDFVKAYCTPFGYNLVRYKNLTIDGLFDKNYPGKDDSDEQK

B1: target 2 MT 5'PFS UUA 3'PFS AGC (mixed)
RNA 1: CACCCGUGCAAAAUUGCAGGGGUCUAAAACCUUCUCCAAAUUGUUUCAUCCU
RNA 2: GGGAAUGGAUCCACAUCUACGAAUUCUUAAGGAUGAAACAAUUUGGAGAAGAGCAGAUCGGAAGAGCACACGU
B2: target 2 MT 5'PFS UUA 3'PFS AGA (mixed)
RNA 1: B1 RNA 1
RNA 2: B1 RNA 2 with C54A
B3: target 2 MT 5'PFS UCU 3'PFS UAA (mixed)
RNA 1: B1 RNA 1
RNA 2: B1 RNA 2 with U28C, A29U, A52U, G53A, C54A
B4: target 2 MT 5'PFS UCU 3'PFS UAC (mixed)
RNA 1: B1 RNA 1
RNA 2: B1 RNA 2 with U28C, A29U, A52U, G53A
B5: target 2 MT 5'PFS GUG 3'PFS ACU (mixed)
RNA 1: B1 RNA 1
RNA 2: B1 RNA 2 with U27G, A29G, G53C, C54U
B6: target 2 MT 5'PFS ACC 3'PFS UAG (mixed)
RNA 1: B1 RNA 1
RNA 2: B1 RNA 2 with U27A, U28C, A29C, A52U, G53A, C54G
B7: target 2 MT 5'PFS ACC 3'PFS UAC (mixed)
RNA 1: B1 RNA 1
RNA 2: B1 RNA 2 with U27A, U28C, A29C, A52U, G53A
B8: target 2 MT 5'PFS AGU 3'PFS ACG (mixed)
RNA 1: B1 RNA 1
RNA 2: B1 RNA 2 with U27A, U28G, A29U, G53C, C54G
B9: target 2 MT 5'PFS ACG 3'PFS UCU (mixed)
RNA 1: B1 RNA 1
RNA 2: B1 RNA 2 with U27A, U28C, A29G, A52U, G53C, C54U
B10: target 2 MT 5'PFS ACC 3'PFS UAU (mixed)
RNA 1: B1 RNA 1
RNA 2: B1 RNA 2 with U27A, U28C, A29C, A52U, G53A, C54U
B11: target 1 insC 3' of 15,insC 3' of 3 (mixed)
RNA 1: CACCCGUGCAAAAAUGCAGGGGUCUAAAACUGAGCGGAUAACCUCUCUAUGG
RNA 2: GGGAAUGGAUCCACAUCUACGAAUUCGUACCAUAGAGCAGGUUAUCCGCUCCACCGAGAUCGGAAGAGCACACGU
B12: target 2 MT 5'PFS GUG 3'PFS ACG (mixed)
RNA 1: B1 RNA 1
RNA 2: B1 RNA 2 with U27G, A29G, G53C, C54G
B13: target 2 MT 5'PFS AGU 3'PFS ACU (mixed)
RNA 1: B1 RNA 1
RNA 2: B1 RNA 2 with U27A, U28G, A29U, G53C, C54U
B14: target 2 MT 5'PFS GUG 3'PFS ACA (mixed)
RNA 1: B1 RNA 1
RNA 2: B1 RNA 2 with U27G, A29G, G53C, C54A
B15: target 2 MT 5'PFS GUG 3'PFS ACC (mixed)
RNA 1: B1 RNA 1
RNA 2: B1 RNA 2 with U27G, A29G, G53C
B16: target 2 MT 5'PFS ACG 3'PFS UCC (mixed)
RNA 1: B1 RNA 1
RNA 2: B1 RNA 2 with U27A, U28C, A29G, A52U, G53C
B17: target 2 MT 5'PFS GGA 3'PFS UGA (mixed)
RNA 1: B1 RNA 1
RNA 2: B1 RNA 2 with U27G, U28G, A52U, C54A
B18: target 2 MT 5'PFS UAG 3'PFS UAU (mixed)
RNA 1: B1 RNA 1
RNA 2: B1 RNA 2 with U28A, A29G, A52U, G53A, C54U
B19: target 2 MT 5'PFS GCU 3'PFS AGC (mixed)
RNA 1: B1 RNA 1
RNA 2: B1 RNA 2 with U27G, U28C, A29U
B20: target 2 MT 5'PFS CGG 3'PFS CUU (mixed)
RNA 1: B1 RNA 1
RNA 2: B1 RNA 2 with U27C, U28G, A29G, A52C, G53U, C54U
B21: target 2 MT 5'PFS AAG 3'PFS UAC (mixed)
RNA 1: B1 RNA 1
RNA 2: B1 RNA 2 with U27A, U28A, A29G, A52U, G53A
B22: target 1 G13A,U19C (mixed)
RNA 1: B11 RNA 1
RNA 2: GGGAAUGGAUCCACAUCUACGAAUUCGUACCACAGAGAAGUUAUCCGCUCACCGAGAUCGGAAGAGCACACGU
B23: target 2 MT 5'PFS GGA 3'PFS UGU (mixed)
RNA 1: B1 RNA 1
RNA 2: B1 RNA 2 with U27G, U28G, A52U, C54U
B24: target 2 MT 5'PFS CGG 3'PFS CUA (mixed)
RNA 1: B1 RNA 1
RNA 2: B1 RNA 2 with U27C, U28G, A29G, A52C, G53U, C54A
B25: target 2 MT 5'PFS CGG 3'PFS CUC (mixed)
RNA 1: B1 RNA 1
RNA 2: B1 RNA 2 with U27C, U28G, A29G, A52C, G53U
B26: target 2 MT 5'PFS GGA 3'PFS CGC (mixed)
RNA 1: B1 RNA 1
RNA 2: B1 RNA 2 with U27G, U28G, A52C
B27: target 2 MT 5'PFS GGA 3'PFS CGA (mixed)
RNA 1: B1 RNA 1
RNA 2: B1 RNA 2 with U27G, U28G, A52C, C54A
B28: target 2 MT 5'PFS GGA 3'PFS CGG (mixed)
RNA 1: B1 RNA 1
RNA 2: B1 RNA 2 with U27G, U28G, A52C, C54G
B29: target 2 MT 5'PFS GAA 3'PFS UCA (mixed)
RNA 1: B1 RNA 1
RNA 2: B1 RNA 2 with U27G, U28A, A52U, G53C, C54A
B30: target 2 MT 5'PFS UAA 3'PFS UCC (mixed)
RNA 1: B1 RNA 1
RNA 2: B1 RNA 2 with U28A, A52U, G53C
B31: target 2 MT 5'PFS UAA 3'PFS UCA (mixed)
RNA 1: B1 RNA 1
RNA 2: B1 RNA 2 with U28A, A52U, G53C, C54A
B32: target 2 MT 5'PFS UAG 3'PFS CUU (mixed)
RNA 1: B1 RNA 1
RNA 2: B1 RNA 2 with U28A, A29G, A52C, G53U, C54U
B33: target 1 insU 3' of 2,insU 3' of 1 (mixed)
RNA 1: B11 RNA 1
RNA 2: GGGAAUGGAUCCACAUCUACGAAUUCGUACCAUAGAGAGGUUAUCCGCUCUAUCCGAGAUCGGAAGAGCACACGU
B34: target 1 insU 3' of 20,insC 3' of 9 (mixed)
RNA 1: B11 RNA 1
RNA 2: GGGAAUGGAUCCACAUCUACGAAUUCGUACCAUUAGAGAGGUUACUCCGCUCACCGAGAUCGGAAGAGCACACGU
B35: target 2 MT 5'PFS UAA 3'PFS UCG (mixed)
RNA 1: B1 RNA 1
RNA 2: B1 RNA 2 with U28A, A52U, G53C, C54G
B36: target 2 MT 5'PFS AGG 3'PFS UCC (mixed)
RNA 1: B1 RNA 1
RNA 2: B1 RNA 2 with U27A, U28G, A29G, A52U, G53C
B37: target 2 MT 5'PFS GGA 3'PFS CGU (mixed)
RNA 1: B1 RNA 1
RNA 2: B1 RNA 2 with U27G, U28G, A52C, C54U
B38: target 2 MT 5'PFS UAG 3'PFS CUG (mixed)
RNA 1: B1 RNA 1
RNA 2: B1 RNA 2 with U28A, A29G, A52C, G53U, C54G

Each binder was assayed against T1, EsCas13d, nuclease-dead (assay: crRNA (strand 1, pre-loaded); Mg2+; 40 mM Tris-HCl pH 7.5, 150 mM NaCl, 6 mM MgCl2, 1 mM DTT, 0.1% Tween-20, 0.2 mg/ml BSA; 25 C; 10 min per concentration, then washed). Details: tags: His6-TwinStrep-SUMO cleaved; N-terminal SNAP kept (SNAP-Surface 488); label: 3' end held by stalled T7 RNA polymerase.

B1 and B2 are within error of each other in Kd: 19.3 ± 2.2 nM for the first, 19.4 ± 3.2 nM for the second.

B3 and B4 are the same in Kd: 12.8 ± 3.2 nM for the first, 12.8 ± 2.5 nM for the second.

Going from B5 to B6, the Kd falls from 12.9 ± 0.7 nM to 4.6 ± 0.8 nM (2.8-fold).

B7 and B8 are within error of each other in Kd: 12 ± 5 nM for the first, 13.8 ± 1.7 nM for the second.

First: B9
Second: B10
The Kd of the first is 3.5-fold higher: 23 ± 7 nM for the first, 6.5 ± 1.4 nM for the second. The second binds more tightly here.

B11 and B12 are within 1.5-fold of each other in Kd: 17.3 ± 0.9 nM for the first, 13.1 ± 0.8 nM for the second.

Compared with B13, B14 is 2.1-fold lower in Kd: 22 ± 7 nM for the first, 10.3 ± 0.9 nM for the second.

B15 and B16 are within error of each other in Kd: 20.8 ± 2.1 nM for the first, 34 ± 15 nM for the second.

Going from B17 to B18, the Kd falls from 15.6 ± 3.1 nM to 2.94 ± 0.19 nM (5.3-fold).

B19 and B20 are within error of each other in Kd: 7.8 ± 1.4 nM for the first, 6.6 ± 0.9 nM for the second.

Going from B21 to B22, the Kd rises from 4.4 ± 0.5 nM to 30 ± 6 nM (6.8-fold). The first binds more tightly here.

First: B23
Second: B24
The Kd of the first is 2.7-fold higher: 16.4 ± 1.6 nM for the first, 6.1 ± 0.8 nM for the second. The second binds more tightly here.

B25 and B26 are within 1.5-fold of each other in Kd: 7.2 ± 0.9 nM for the first, 10.5 ± 1.2 nM for the second.

B27 and B28 are within error of each other in Kd: 9.1 ± 0.9 nM for the first, 9.8 ± 0.8 nM for the second.

B29 and B30 are within error of each other in Kd: 12.7 ± 3.2 nM for the first, 11.8 ± 1.4 nM for the second.

First: B31
Second: B32
The Kd of the first is 1.5-fold higher: 6.8 ± 1.7 nM for the first, 4.4 ± 0.5 nM for the second.

First: B33
Second: B34
The Kd of the first is 2.1-fold lower: 10.7 ± 0.6 nM for the first, 22.6 ± 1.1 nM for the second. The first binds more tightly here.

Compared with B35, B36 is 4.2-fold higher in Kd: 6.2 ± 1 nM for the first, 26 ± 4 nM for the second. The first binds more tightly here.

Going from B37 to B38, the Kd falls from 19.9 ± 3.1 nM to 3.8 ± 0.5 nM (5.2-fold). The second binds more tightly here.
